Data from patent publication US20170037106A1 (FLOREY INSTITUTE OF NEUROSCIENCE AND MENTAL HEALTH, published 2017).
Square brackets hold non-standard residues; d marks the D form. Ends that are not written are not given here. hArg = N=C(N)NCCCC[C@H](N)C(=O)O

T1: RXFP1 (LGR7) receptor, on stably transfected HEK-293T cells (UniProt Q9HBX9 1-757, limits assumed)
T1 sequence (looked up): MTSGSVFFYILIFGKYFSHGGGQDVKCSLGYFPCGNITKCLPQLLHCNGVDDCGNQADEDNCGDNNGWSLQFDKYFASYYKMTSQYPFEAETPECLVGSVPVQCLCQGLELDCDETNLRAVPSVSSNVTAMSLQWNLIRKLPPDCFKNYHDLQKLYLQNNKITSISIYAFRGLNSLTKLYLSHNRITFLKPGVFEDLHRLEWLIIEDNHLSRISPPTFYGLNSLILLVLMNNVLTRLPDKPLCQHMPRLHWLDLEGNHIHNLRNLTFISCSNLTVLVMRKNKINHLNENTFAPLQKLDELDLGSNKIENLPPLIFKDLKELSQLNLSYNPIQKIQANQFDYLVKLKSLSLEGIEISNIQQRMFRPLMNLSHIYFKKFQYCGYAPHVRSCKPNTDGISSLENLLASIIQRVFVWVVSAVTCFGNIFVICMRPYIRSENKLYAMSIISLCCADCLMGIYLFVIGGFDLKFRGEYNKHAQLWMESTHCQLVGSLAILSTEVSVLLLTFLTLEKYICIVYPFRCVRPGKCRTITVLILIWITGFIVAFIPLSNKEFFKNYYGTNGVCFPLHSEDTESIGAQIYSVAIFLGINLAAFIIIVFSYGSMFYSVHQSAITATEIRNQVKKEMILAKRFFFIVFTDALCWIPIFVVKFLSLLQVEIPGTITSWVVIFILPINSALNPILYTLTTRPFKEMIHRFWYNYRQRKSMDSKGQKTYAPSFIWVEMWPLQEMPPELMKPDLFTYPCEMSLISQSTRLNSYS

T2: 7BP: fusion protein comprising the extracellular domain of RXFP1 and the transmembrane domain of CD8, on cells (UniProt Q9HBX9 1-409)
T2 construct: extracellular domain;domain: transmembrane domain; also called 7BP cells; not shown: transmembrane domain of CD8
T2 sequence (looked up): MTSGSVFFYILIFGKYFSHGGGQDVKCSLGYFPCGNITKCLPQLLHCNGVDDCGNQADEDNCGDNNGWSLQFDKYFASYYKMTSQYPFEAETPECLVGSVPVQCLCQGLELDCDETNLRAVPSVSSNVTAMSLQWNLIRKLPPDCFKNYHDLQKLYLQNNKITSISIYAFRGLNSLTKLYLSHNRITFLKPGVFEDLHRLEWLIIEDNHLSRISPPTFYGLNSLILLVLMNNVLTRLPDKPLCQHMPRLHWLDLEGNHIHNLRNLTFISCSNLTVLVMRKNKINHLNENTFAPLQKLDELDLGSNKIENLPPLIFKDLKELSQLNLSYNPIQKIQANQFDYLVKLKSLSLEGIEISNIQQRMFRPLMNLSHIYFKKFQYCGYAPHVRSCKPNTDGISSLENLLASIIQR

T3: RXFP1 (LGR7) receptor, on stably transfected HEK-293T cells (UniProt Q9HBX9)
T3 sequence (looked up): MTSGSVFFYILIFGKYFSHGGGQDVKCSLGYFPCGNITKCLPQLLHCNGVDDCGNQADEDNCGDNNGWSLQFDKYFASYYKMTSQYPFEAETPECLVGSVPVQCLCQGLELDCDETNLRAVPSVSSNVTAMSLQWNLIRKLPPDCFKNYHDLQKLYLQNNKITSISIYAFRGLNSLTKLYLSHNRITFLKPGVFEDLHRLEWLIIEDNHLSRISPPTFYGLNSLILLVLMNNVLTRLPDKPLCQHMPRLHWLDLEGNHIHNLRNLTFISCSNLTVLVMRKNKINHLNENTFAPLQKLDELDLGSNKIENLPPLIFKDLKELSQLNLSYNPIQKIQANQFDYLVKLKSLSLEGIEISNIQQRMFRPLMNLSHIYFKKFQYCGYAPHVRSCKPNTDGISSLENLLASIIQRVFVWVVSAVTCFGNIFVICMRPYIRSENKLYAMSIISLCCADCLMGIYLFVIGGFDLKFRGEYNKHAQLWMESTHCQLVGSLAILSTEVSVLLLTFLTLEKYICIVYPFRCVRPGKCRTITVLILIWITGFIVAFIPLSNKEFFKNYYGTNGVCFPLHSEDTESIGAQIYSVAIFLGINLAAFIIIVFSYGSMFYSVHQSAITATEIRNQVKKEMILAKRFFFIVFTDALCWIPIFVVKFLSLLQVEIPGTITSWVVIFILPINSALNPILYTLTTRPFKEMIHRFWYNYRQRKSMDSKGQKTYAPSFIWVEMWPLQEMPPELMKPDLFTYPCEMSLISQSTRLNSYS


Tests used:
[1] = molecular target: T1, RXFP1 (LGR7) receptor, on stably …; test: cell-based or functional assay
[2] = molecular target: T2, 7BP: fusion protein comprising the …; test: Eu-H2 relaxin competition on 7BP cells
[3] = molecular target: T1, RXFP1 (LGR7) receptor, on stably …; test: Eu-H2 relaxin competition, whole HEK-293T cells stably expressing RXFP1
Procedure: Human embryonic kidney (HEK-293T) cells stably transfected with RXFP1 were cultured in RPMI 1640 medium supplemented with 10% fetal calf serum, 100 μg/ml penicillin, 100 μg/ml streptomycin and 2 mM L-glutamine and plated into 96-well pre-coated with poly-L-lysine for whole cell binding assays. Competition binding experiments were conducted with Eu³⁺-labelled H2 relaxin (as per Shabanpoor et al., 2012, Biochem Biophys Res Commun. 420, 253-256) in the absence or presence of increasing concentrations of unlabelled relaxin-2 B chain derivatives. Nonspecific binding was determined with an excess of unlabelled peptides (500 nM H2 relaxin). Fluorescent measurements were recorded at an excitation wavelength of 340 nm and emission of 614 nm on a Victor plate reader (Perkin-Elmer Inc.). […] Statistical differences in pIC₅₀ values were analyzed using one-way analysis of variance coupled to Newman Keul's multiple comparison test for multiple group comparisons in GraphPad Prism 6.
#p < 0.001 vs H2 relaxin ¹Data are presented as the mean ± S.E of the percentage of the total specific binding of triplicate wells, repeated in at least three separate experiments, and curves were fitted using one-site binding curves in GraphPad Prism 6 (GraphPad Inc, San Diego, CA).

[4] = molecular target: T3, RXFP1 (LGR7) receptor, on stably transfected HEK-293T cells; test: cell-based or functional assay

| cAMP pEC50 [1] [log M] | pKi [2] [log M] | pKi [3] [log M] | cAMP pEC50 [4] [log M] | Binder |
| --- | --- | --- | --- | --- |
| 10.5 | 8.97 | 8.96 | – | native H2 relaxin (human relaxin-2, heterodimer of A chain and B1-29 B chain) (ligand, disulfide (positions not given here); ends not checked; also: three disulfides (two inter-chain, one within A chain), places not given here, mature; Two chains linked by three disulfide bonds (two inter-chain, one within the A chain); also called native human relaxin-2; Eu^3+-labelled H2 relaxin (tracer form)) chain 1: QLYSALANKCCHVGCTKRSLARFC chain 2: DSWMEEVIKLCGRELVRAQIAICGMSTWS |
| < 5 | – | 6.61 | – | DSWMEEVIKLCGRELVRAQIAICGMSTWSKRSL-NH2 (not fully specified (bridges); printed as DSWMEEVIKLCGRELVRAQIAICGMSTWSKRSL-NH2; cysteine pairing not given here) [B1-33ox] |
| 5.1 | – | 5.33 | – | DSWMEEVIKLSGRELVRAQIAISGMSTWSKRSL-NH2 [B1-33 C11.23S] |
| < 5 | – | 6.52 | – | VIKLSGRELV[hArg]AQIAISGMSTWSKRSL-NH2 (N-terminus assumed; SMILES CC[C@H](C)[C@H](NC(=O)[C@H](C)NC(=O)[C@@H](NC(=O)[C@H](CCC(N)=O)NC(=O)[C@H](C)NC(=O)[C@H](CCCCNC(=N)N)NC(=O)[C@@H](NC(=O)[C@H](CC(C)C)NC(=O)[C@H](CCC(=O)O)NC(=O)[C@H](CCCNC(=N)N)NC(=O)CNC(=O)[C@H](CO)NC(=O)[C@H](CC(C)C)NC(=O)[C@H](CCCCN)NC(=O)[C@@H](NC(=O)[C@@H](N)C(C)C)[C@@H](C)CC)C(C)C)[C@@H](C)CC)C(=O)N[C@@H](CO)C(=O)NCC(=O)N[C@@H](CCSC)C(=O)N[C@@H](CO)C(=O)N[C@H](C(=O)N[C@@H](Cc1c[nH]c2ccccc12)C(=O)N[C@@H](CO)C(=O)N[C@@H](CCCCN)C(=O)N[C@@H](CCCNC(=N)N)C(=O)N[C@@H](CO)C(=O)N[C@@H](CC(C)C)C(N)=O)[C@@H](C)O) [B7-33 C11.23S R17HR] |
| 5.81 | 8.91 | 6.25 | – | Ac-VIKLSGRELVRAQIAISGMSTWSKKKK-NH2 (AcB7-29 C11.23S with KKKK at the C-terminus in place of KRSL) [KKKK (AcB7-29 C11.23S)] |
| 5.11 | – | 6.15 | – | VIKLCGRELVRAQIAICGMSTWSKRSL-NH2 (not fully specified; printed as VIKLCGRELVRAQIAICGMSTWSKRSL-NH2; also: oxidised (ox), disulfide pattern not described, also called B7-33ox) [Native B7-33] |
| < 5 | – | – | – | VIKLSGRELVKAQIAISGMSTWSKRSL-NH2 [B7-33 C11.23S R17K] |
| < 5 | – | – | – | Ac-VIKLSGRELVRAQAAISGMSTWSKRSL-NH2 [I20A (AcB7-33 C11.23S)] |
| – | 5.76 | – | < 5 | Ac-VIKLSGAELVRAQIAISGMSTWSKRSL-NH2 [R13A (AcB7-33 C11.23S)] |
| – | 5.54 | – | < 5 | Ac-VIKLSGAELVAAQAAISGMSTWSKRSL-NH2 [R13/17A I20A (AcB7-33 C11.23S)] |
| – | 6.01 | – | < 5 | Ac-VIKLSGRELVAAQIAISGMSTWSKRSL-NH2 [R17A (AcB7-33 C11.23S)] |
| 5.4 | 7.54 | 6 | – | Ac-VIKLSGRELVRAQIAISGMSTWSKRSL-NH2 [AcB7-33 C11.23S] |
| 5.12 | 7.65 | 5.54 | – | VIKLSGRELVRAQIAISGMSTWSKRSL-NH2 (also called single chain B7-33 C11.23S peptide) [Modified B7-33 (B7-33 C11.23S)] |
| < 5 | – | – | – | VIKLSGRELVRAQIAISGMSTWS-NH2 [B7-29 C11.23S] |
